Test: yeast display, Sf9 membrane polyspecificity reagent, FACS + sequencing; frameworks hold sequencing errors
Summary of the method: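 A synthetic nanobody library was expressed on Saccharomyces cerevisiae BJ5465 by galactose induction for 36–48 hours. The library was stained for 1 hour at 4 °C with 10% biotinylated, detergent-solubilized Sf9 membrane reagent and enriched with streptavidin microbeads before FACS. Low and high (top ~1%) gates were set on anti-HA fluorescence for expression and streptavidin fluorescence for reagent binding, and each polyreactivity label reflects the gate of origin.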

Row | Sequence | polyreactivity (PSR sort gate)
1 | QVQLVESGGGLVQAGGSLRLSCAASGSIFVSNAMGWYRQAPGKERELVAAITSSGSTDYADSVKGRFTISRDNAKNTVYLQMNSLKPDDTAVYYCAAESDHTFFLWSLNDSWGQGTQVTVSS | low polyreactivity
2 | QVQLVESGGGLVQAGGSLRLSCAASGSIFVSNTMGWYRQAPGKEREMVASIRETAGSTNYADSVKGRFTISRDYAKNTFYLQMNSLKPEDTAVYYCAARYSPTRYHYGYWGQGTQVTVSS | low polyreactivity
3 | QVQLVESGGGLVQAGGSLRLSCAASGSIFVTNPMGWYRQAPGKERELVAAIRGGGGSTYYADSVKGRFTISRDNAKNTVYLQMNSLKPEDTAVYYCNADRRGYLQSEMDYWGQGTQVTVSS | low polyreactivity
4 | QVQLVESGGGLVQAGGSLRLSCAASGSIFVTYAMGWYRQAPGKERELVAAISTSGGSTYADSVKGRFTISRDNAKNTVYLQMNSLKPEDTAVYYCNADDPGYAVPWYWFKSDYWGQGTQVTVSS | low polyreactivity
5 | QVQLVESGGGLVQAGGSLRLSCAASGSIFVTYAMGWYRQAPGKERELVAVITWGGGSTYYADSVKGRFTISRDNAKNTVYLQMNSLKPEDTAVYYCAKDSYYYRRDVTVDYWGQGTQVTVSS | low polyreactivity
6 | QVQLVESGGGLVQAGGSLRLSCAASGSIFVTYDLGWYRQAAGKERELVAGISGSGSTNYADSVKGRFTISRDNAKNTVYLQMNSLKPEDTAVYYCNTDGLWSAEYDYWGQGTQVTVSS | low polyreactivity
7 | QVQLVESGGGLVQAGGSLRLSCAASGSIFVVYAMGWYRQAPGKERELVASIRTGGSTNYADSVKGRFTISRDNAKNTVYLQMNSLKPEDTAVYYCAAASWNSNSHYYVARYYYWGHGTQVTVSS | high polyreactivity
8 | QVQLVESGGGLVQAGGSLRLSCAASGSIFVVYGMGWYRQAPGKERELVAAISGGITNYADSVKGRFTISRDNAKNTVYLQMNSLKPEDTAVYYCATVDGAYQYTYDYWGQGTQVTVSS | low polyreactivity
9 | QVQLVESGGGLVQAGGSLRLSCAASGSIFVVYSMGWYRQAPGKERELVAAISWGIGSTYYADSVKGRFTISRDNAKNTVYLQMNSLKPEDTALYYCAADTDIVLYDYWGQGTQVTVSS | low polyreactivity
10 | QVQLVESGGGLVQAGGSLRLSCAASGSIFVWNAMGWYRQAPGKERELVAAISYTDGSTYYADSVKGRFTISRDNAKNTVYLQMNSLKPEDTAVYYCAAAITPSYTGSEYDYWGQGTQVTVSS | low polyreactivity
11 | QVQLVESGGGLVQAGGSLRLSCAASGSIFVWNAMGWYRQAPGKERELVARIRYSSNTYYADSVKGRFTISRDNAKNTVYLQMNSLKPEDTAVYYCAAGSTRYAGWTYNYWGQGTQVTVSS | high polyreactivity
12 | QVQLVESGGGLVQAGGSLRLSCAASGSIFVWYAMGWYRQAPGKERELVAAINWSGGRTYYADSVKGRFTISRDNAKNTVYLQMNSLKPEDTAVSYCNKVVPGYSAAKYDYWGQGTQVTVSS | high polyreactivity
13 | QVQLVESGGGLVQAGGSLRLSCAASGSIFVWYAMGWYRQAPGKERELVAAISSSGDNTYYADSVKGRFTISRDNAKNTVYLQMNSLKPEDTAVYYCAAKSYWGQGTQVTVSS | high polyreactivity
14 | QVQLVESGGGLVQAGGSLRLSCAASGSIFVYNTMGWYREAPGKERELVASITYSGGSTYYADSVKGRFTISRDNAKNTVYLQMNSLKPEDTAVYYCNTDDVALQWDWYPYPYDYWGQGTQVTVSS | low polyreactivity
15 | QVQLVESGGGLVQAGGSLRLSCAASGSIFVYNVMGWYRQAPGKERELVAAINYSGVSTYYADSVKGRFTISRDNAKNTVYLQMNSLKPEDTAVYYCAAEYEFGHSSTPMDYWGQGTQVTVSS | high polyreactivity
16 | QVQLVESGGGLVQAGGSLRLSCAASGSIFVYYAMGWYRQAPGKEREFVATISSSGGSTYYADSVKGRFTISRDNAKNTVYLQRNSLKPEDTAVYYCNRRYFFFYGHSFDYWGQGTQVTVSS | high polyreactivity

Row | Sequence | polyreactivity (PSR sort gate)
17 | QVQLVESGGGLVQAGGSLRLSCAASGSIFVYYAMGWYRQAPGKERELVAAISKTGGRTYYADSVKGRFTISRDNAKNTVYLQMNSLKPEDTAVYYCAARYTIRYKRYDYWGQGTQVTVSS | high polyreactivity
18 | QVQLVESGGGLVQAGGSLRLSCAASGSIFVYYGMGWYRQAPGKEWELVAAMSSGGSSHYADSVKGRFTISRVTAKNSVYLQMNSLKPEDTAVYYCPADGFFWQRSYTRYYYWGQGSQVTVSS | low polyreactivity
19 | QVQLVESGGGLVQAGGSLRLSCAASGSIFVYYVMGWYRQAPGKERELVAAISSGGRTYYADSVKGRFTISRDNAKNTVYLQMNSLKPEDTAVYYCAARPIRPASEVNYWGQGTQVTVSS | low polyreactivity
20 | QVQLVESGGGLVQAGGSLRLSCAASGSIFWANAMGWYRPAPGKERELVAAINFRATITYYPASVKGRFTISRDNAKNTVYLQMNSRKPEDTAVYYCAKAQAQRYSFYYWGQGTQVTVSS | high polyreactivity
21 | QVQLVESGGGLVQAGGSLRLSCAASGSIFWFNAMGWYRQAPGKEREFVASISRSGGTTYYADSVKGRFTISRDTAKNTVYLQMYSLKPEDTAVYYCNARAYGNGLGTGYFGKHRYDYWGQGTQVTVSS | low polyreactivity
22 | QVQLVESGGGLVQAGGSLRLSCAASGSIFWFNAMGWYRQAPGKERELVAAINSSGGRTYYADSVKGRFTISRDNAKNTVYLQMNSLKPEDTAVYYCNALLWGNPASYGYWGQGTQVTVSS | high polyreactivity
23 | QVQLVESGGGLVQAGGSLRLSCAASGSIFWFNAMGWYRQAPGKERELVAAITITGGSTYYADSVKGRFTISRDNAKNTVYLQMNSLKPEDTAVYYCAAGTGSRDDYWGQGTQVTVSS | high polyreactivity
24 | QVQLVESGGGLVQAGGSLRLSCAASGSIFWGNAMGWYRQAPGKERELVAAIRRGTSTYYADSVKGRFTISRDNAKNTVYLQMNSLKPEDTAVYYCAAEGWTTPTPTSDDNQWWYDYWGQGTQVTVSS | high polyreactivity
25 | QVQLVESGGGLVQAGGSLRLSCAASGSIFWGNDMGWYRQAPGKERELVAGIRNSGTSTYYADSVKGRFTISRDHAKNTVYLQMNSLKPEDTAVYYCAAADGRQYSRYYWRGHDYWGQGTQVTVSS | low polyreactivity
26 | QVQLVESGGGLVQAGGSLRLSCAASGSIFWGTAMGWERQAPGKERELVAAISWSGGSTYYADSVKGRFTISRDNAKNTVDLQMHSLKPEDTAVYYCAARFKRVGSIPYYYWGQGTQVTVSS | high polyreactivity
27 | QVQLVESGGGLVQAGGSLRLSCAASGSIFWGYAMGWYRQAPGKERELVAAISSSGGNTYYADSVKGRFTISRDNAKNTVYLQMNSLKPEDTAVYYCAATPEFYGGKITDVYSQYGYWGQGSQVTVSS | low polyreactivity
28 | QVQLVESGGGLVQAGGSLRLSCAASGSIFWINAMGWCRQAPGKEREFVADIDVSGGSTYYADSVKGRFTISRDNAKNTVYLQMNSLKPEDTAVYYCAADDYWAYLYYKTSEYYYWGQGTQVTVSS | low polyreactivity
29 | QVQLVESGGGLVQAGGSLRLSCAASGSIFWLYAMGWYRQAPGKERELVATISSTGSTDYADSVKGRFTISRDNAKNTVYLQMNSLKPEDTAVYYCATDVFYSIFTPSPFEYDYWGQGTQVTVSS | high polyreactivity
30 | QVQLVESGGGLVQAGGSLRLSCAASGSIFWNNAMGWSRQAPGKERELVAAISKSGTRTYYADSVKGRFTISRDNAKNTVYLQMNSLKPEDTAVYYCNALLRDSGTYAGDDYWGQGTQVTVSS | high polyreactivity
31 | QVQLVESGGGLVQAGGSLRLSCAASGSIFWNNAMGWYRQAPGKEREFVATITWSGDSTYYADSVKGRFTISRDNAKNTVYLQMNSLKPEDTAVYYCAALLDYSVADLYSHHVSRYYYWGQGTQVTVSS | low polyreactivity

Source: the nanobody polyreactivity screen of Harvey et al. (2022)
